Patent publication US20220235128A1
Residue numbers refer to the chain shown, from its start.

B1: QP190191 (antibody, V domains shown)
VH: EVKLVESGGGLVKPGGSLKLSCAASGFTFSNYAMSWVRQTPEKRLEWVASIISGGRTYYLDSEKGRFTISRDNARNNLYLQMSSLRSEDTAMYYCTRIYYGNSFDYWGQGTTLTVSS
VL: DIVMTQSPSSQTVTAGEKVTMSCKSSQSLLNSGNQKNYLTWYQQKPGQPPKLLIYWASTRESGVPDRFTGSGSGTDFTLTISNMQAEDLAVYYCQNDYSYPFTFGSGTKLEIK
B2: QP192193 (antibody, V domains shown)
VH: QVQLQQSGAELVRPGSSVKISCKASGYAFSSYWMNWVKQRPGQGLEWIGQIYPGNGDTTYNGKFKGQATLTADKSSSTVYMQLSSLTSEDSAVYFCARFVKGNAMDYWGQGTSVTVSS
VL: B1 VL with Q11L, K45N, L52M, T75I, T78S, N83S, M84V, V91L, D97A
B3: QP207208 (antibody, V domains shown)
VH: EVQLQQSGPELVKPGASVKMSCKASGYTFTSYIMHWVKQKPGQGLEWIGYINPYNDGTKYNEKFKGKATLTSDKSSSTVYMELSSLTSEDSAVYCCARLGFTTRNAMDYWGQGTSVTVSS
VL: B1 VL with Q11L, T12S, T14S, S22N, T40A, W56G, N83S, M84V, Y98H
B4: QP201202 (antibody, V domains shown)
VH: EVQLQQSGPELVKPGASVKMSCKASGYTFTNYFVHWVKQKPGQGLEWIGYINPYNDDTKYNEKFKGKATLTSDKSSSTAYMDLSSLTSEDSAVYYCLSLRFFAYWGQGTLVTVSA
VL: B1 VL with Q11L, P49A, T69I, N83H, M84V, Y93F, F102L, S106A, K109N, I112L

target: claudin 18.2 (isoform 2 subtype of CLDN18) (UniProt P56856); assay: FACS, 5 ug/ml antibody on dissociated GA0006 gastric cancer PDX tumor cells, PE anti-human IgG Fc

Molecule	Ratio of antibody-bound cells [%]
IMAB362 (Claudiximab) (antibody)	85.6
B1	91.5
B2	92.4
B3	91.7
B4	90
